In assay [1] the target is T1, Human PD-1 expressed on CHO-K1 cells (CHO-K1/hPD-1) (human, UniProt Q15116 25-288).
T1 construct: whole, on cells; also called CHO-K1 cells overexpressing human PD-1
The experiment in a line: FACS, CHO-K1/hPD-1 cells. In short, it runs like this:
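CHO-K1 cells overexpressing human or cynomolgus PD-1 were incubated 1 h at 4 °C with antigen-binding proteins: 8-11 concentrations, 5-fold dilutions, top final 100 nM or 300 nM, hIgG control. Binding was detected with Alexa Fluor 488 anti-human IgG (30 min, 4 °C) and read by flow cytometry.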
(A flow cytometer gives signals particle by particle.)

In assay [2] the target is T1, Human PD-1 expressed on CHO-K1 cells …. The experiment in a line: FACS, CHO-K1/hPD-1 cells. This is another data set of the same source.
The target in assay [3] is T2, Human PD-1 protein with histidine and avi tags (ACRO Biosystems, PD1-H82E4) (human, UniProt Q15116 25-167).
T2 construct: Captured on streptavidin (SA) sensors in the BLI assay; not shown: histidine and avi tags
T2 sequence (Q15116 25-167 limits assumed): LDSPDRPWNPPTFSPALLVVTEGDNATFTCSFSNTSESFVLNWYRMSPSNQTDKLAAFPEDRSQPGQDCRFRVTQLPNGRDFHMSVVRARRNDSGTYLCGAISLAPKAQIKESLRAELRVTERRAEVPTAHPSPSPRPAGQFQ
Put plainly: BLI (Octet Red96e), PD-1 captured on SA sensor, 1:1 local fit. The protocol:
Human PD-1 proteins with histidine and avi tags were purchased from the manufacturer ACRO Biosystems (Cat#: PD1-H82E4), and the assay buffer was 1× kinetics buffer (diluted from 10× kinetics buffer (ForteBio, Cat#: 18-1105)) for kinetic assay and dilution of antigens and antibodies. The binding kinetics between the antigen and the antibody was analyzed by the biolayer interferometry (BLI) technique using an Octet molecular interaction analyzer (ForteBio, model: Octet Red96e).
When the binding kinetics between the antigen and the antibody was determined, the rotation speed of the sensor was set at 1000 rpm/min. The eight SA sensors placed in a column were first equilibrated in an assay buffer for 10 min and then used to capture PD-1 at a capture height of 0.5 nm. Thereafter, the SA sensors were equilibrated in the assay buffer for 100 s, and then were associated with each antibody diluted to a single concentration and with a row of blank buffer wells for 180 s, followed by dissociation for 600 s. A new column of SA sensors were used in each cycle.
When data analysis was performed using Octet Data Analysis software (Fortebio, version 11.0), the reference signals were subtracted by a single reference mode (reference well), the data were fitted by a “1:1 Local fitting” method, and the kinetic parameters of the binding of the antigen to the antibody were calculated to obtain kon (1/Ms) values, kdis (1/s) values and KD (M) values.
(Biolayer interferometry detects binding as a change in optical thickness at a sensor tip.)

For assay [4], the target named is T1, Human PD-1 expressed on CHO-K1 cells …. The experiment in a line: FACS blocking of biotin-labeled human PD-L1 binding to CHO-K1-hPD-1 cells.

Read-outs that look alike come from different tables or passages of the source.

T1 sequence (Q15116 25-288): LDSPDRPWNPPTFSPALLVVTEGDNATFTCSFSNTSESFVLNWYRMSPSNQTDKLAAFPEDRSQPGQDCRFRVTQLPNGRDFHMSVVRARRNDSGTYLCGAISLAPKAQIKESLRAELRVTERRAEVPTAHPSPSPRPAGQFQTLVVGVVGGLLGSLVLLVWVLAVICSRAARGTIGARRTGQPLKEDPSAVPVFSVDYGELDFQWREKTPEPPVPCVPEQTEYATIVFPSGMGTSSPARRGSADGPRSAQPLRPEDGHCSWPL

B1: PR002481 (antibody, human IgG1, V domains shown)
VH: EVQLVETGGGLIQPGGSLRLSCAASGFNVSSHYMSWVRQAPGKGREWVSIIDGGGSTYYADSVKGRFTISRDNSKNRLYLQMNSLRAEDTAMYYCARATAVAEKNGYNYPFNYWGQGTLVTVSS
notes: Heavy-chain-only antibody (HCAb), human IgG1 Fc; two heavy chains, no light chain; also called R4004P556D1; anti-PD1 R4004P556D1 HCAb hG1
The term EC50 denotes the concentration needed to bring the measured effect to its halfway point. Usually Kd stands for the constant that tells how readily two partners part at equilibrium. Lower therefore signals a tighter complex. For orientation: koff means the rate constant with which the complex falls apart. A higher koff goes with fast dissociation. By kon is commonly meant the second-order rate constant of association. The low end stands for slower complex formation, the high end for faster complex formation. By IC50 is commonly meant the concentration that inhibits the measured activity by half. Lower therefore signals inhibition by little substance. Turning to B1, in assay [1], the EC50 turned out to be 8.94 nM and the “MFI Maximum” value came to 950000. Besides, in assay [2], the EC50 was 7.99 nM and the “Maximum (MFI)” value was found to be 2.63e+06. Also, in assay [3], the dissociation constant Kd is 77 nM, the koff is 0.000768 s⁻¹ and the kon was determined as 9970 M⁻¹ s⁻¹. For the same molecule, in assay [4], the IC50 was 8.86 nM and the “Maximum inhibition rate (%)” value was 103%.

The values are drawn from patent publication US20240034792A1 (HARBOUR BIOMED SHANGHAI, published 2024).
